Legend:
[1] = target: Detergent-soluble HLA-DR1 purified from LG-2 cells (DRB1*0101) (human)
[2] = target: Detergent-soluble HLA-DR2 purified from MGAR cells (DRB1*1501) (human)
[3] = target: Detergent-soluble HLA-DR4 purified from Priess cells (DRB1*0401) (human)

Substance	IC50 [1] [µM]	Kd [1] [µM]	IC50 [2] [µM]	Kd [2] [µM]	IC50 [3] [µM]	Kd [3] [µM]
Copolymer 1 (peptide)	8.8	0.074	10.1	0.082	10.8	0.015
GAL terpolymer (SD-1689), poly[L-Glu 0.153, L-Ala 0.479, L-Lys 0.365] (peptide)	< 1000	–	< 1000	0.017	< 1000	0.003
GTL terpolymer (SD-1697), poly[L-Tyr 0.162, L-Glu 0.259, L-Lys 0.579] (peptide)	43	0.004	25.4	–	43	0.008
TAL terpolymer (SD-1691), poly[L-Tyr 0.102, L-Ala 0.542, L-Lys 0.353] (peptide)	3.3	–	2.7	0.017	–	–
TGA terpolymer (SD-1690), poly[L-Tyr 0.136, L-Glu 0.21, L-Ala 0.648] (peptide)	1.3	0.01	9.5	0.008	1	0.008

Reference: patent publication US20150030560A1
